According to patent US20250152742A1, “COMPOSITIONS AND METHODS FOR NEUROLOGICAL DISEASES” (Trames Bio, Inc., priority 2022, published 2025):
Numbering of substitutions follows the chain as printed. Names may count otherwise.

Tested on: engineered chimeric receptor SEQ ID NO: 33 and its mutants (human α7-nAChR ligand binding domain / human GlyRα1 ion pore domain) in Lenti-X 293T cells
Experiment: YFP fluorescence quenching anion reporter plate reader assay (percent quench, EC50)
Format: cell-based
Details: for YFP fluorescence quenching using CNL001 (percent quench): receptor named in row; for YFP fluorescence quenching using Facinicline, 30 nM fac: ligand Facinicline 30 nM; for YFP fluorescence quenching using Facinicline, 300 nM fac: ligand Facinicline 300 nM; for YFP fluorescence quenching using Facinicline, 30 uM fac: ligand Facinicline 30 uM; for YFP fluorescence quenching using TC-6987, 1 uM tc6987: ligand TC-6987 1 uM; for YFP fluorescence quenching using TC-6987, 10 uM tc6987: ligand TC-6987 10 uM; for YFP fluorescence quenching using TC-6987, 500 uM tc6987: ligand TC-6987 500 uM; for YFP fluorescence quenching using Varenicline, 3 nM var: ligand Varenicline 3 nM; for YFP fluorescence quenching using Varenicline, 30 nM var: ligand Varenicline 30 nM; for YFP fluorescence quenching using Varenicline, 300 nM var: ligand Varenicline 300 nM; for YFP fluorescence quenching using Varenicline, 500 nM var: ligand Varenicline 500 nM; for YFP fluorescence quenching using Varenicline, 1 uM var: ligand Varenicline 1 uM
Source text: To screen these mutant LGICs for those having novel response profiles to ligands, an anion reporter assay was developed to assess the function of the LGICs in a high throughput format. In this assay, cells expressing a YFP reporter whose fluorescence is quenched in the presence of anion are transfected with DNA encoding the channel of interest. Upon exposure to ligand, channels that are activated will flux anion, resulting in a dose-dependent quench of the YFP that can be detected on a plate reader. The greater the quench signal (i.e., the more positive the value), the higher the ligand activity on the receptor is.
Lenti-X 293T cells (LX293T, Clontech) were maintained in DMEM containing 10% FBS and 1% penicillin/streptomycin (Invitrogen). […] Two days before assay, cells were split at a density of 20,000 cells/well in a 96-well tissue culture plate coated with poly-d lysine (Thermo Scientific). The next day, the cells were transiently transfected with 0.1 μg of DNA per well using standard Fugene protocol (Promega). On the day of assay, cells were washed 2 times in 1X extracellular solution (1X ECS: 140 mM NaCl, 5 mM KCl, 1 mM MgCl2, 2 mM CaCl2, 10 mM HEPES, 10 mM glucose, pH 7.2, mOsms 300). After the last wash, 100 μL of 1X ECS was added to the wells and the plate was incubated at 37° C. for 30 min. While incubating the plate, the drugs were diluted to a 2X concentration in 1X ECS-Nal (same components as 1X ECS except the 140 mM NaCl was replaced by 140 mM Nal). The plates were then read on a Flexstation3 (Molecular Devices). Each well, 8 wells at a time, of the plate is read for 2 min using a Flexstation3 (Molecular Devices) as follows: 1) a baseline YFP fluorescence is read for 17 sec, 2) 100 μL of ligand is added, and 3) the changes in YFP fluorescence are then measured every 1.3 sec for 1 minute and 43 seconds. The percent quench is calculated from the average fluorescence of the last 10 seconds of the read divided by the baseline average of the first 15 seconds prior to the ligand addition.
FIGS. 1A-1J provide heat maps of the percent quench of YFP fluorescence following stimulation by various doses of either acetylcholine or the non-native ligand as indicated in the Figures. CODA71 (SEQ ID NO: 33) was used as a control, and CODA75 (SEQ ID NO: 29, a non-responding chimeric engineered receptor) was used as the negative control. Quenching of the fluorescence signal, as indicated by blue shaded cells, indicate the level of engineered receptor activation by the non-native ligand at that concentration.

[1] = 1 nM CNL001, first column so headed
[2] = 1 nM CNL001, second column so headed
[3] = 3 nM brd (TC-5619/Bradanicline)
[4] = 10 nM CNL001, first column so headed
[5] = 10 nM CNL001, second column so headed
[6] = 30 nM brd (TC-5619/Bradanicline)
[7] = 50 nM CNL001, first column so headed
[8] = 50 nM CNL001, second column so headed
[9] = 100 nM CNL001, first column so headed
[10] = 100 nM CNL001, second column so headed
[11] = 300 nM brd (TC-5619/Bradanicline)
[12] = 1 uM CNL001, first column so headed
[13] = 1 uM CNL001, second column so headed

B1: CODA238: engineered receptor: R101W in SEQ ID NO: 33 (protein)
chain: MRCSPGGVWLALAASLLHVSLQGEFQRKLYKELVKNYNPLERPVANDSQPLTVYFSLSLLQIMDVDEKNQVLTTNIWLQMSWTDHYLQWNVSEYPGVKTVWFPDGQIWKPDILLYNSADERFDATFHTNVLVNSSGHCQYLPPGIFKSSCPMDLKNFPMDVQTCKLKFGSWSYGGWSLDLQMQEADISGYIPNGEWDLVGIPGKRSERFYECCKEPYPDVTFTVTMRRRMGYYLIQMYIPSLLIVILSWISFWINMDAAPARVGLGITTVLTMTTQSSGSRASLPKVSYVKAIDIWMAVCLLFVFSALLEYAAVNFVSRQHKELLRFRRKRRHHKSPMLNLFQEDEAGEGRFNFSAYGMGPACLQAKDGISVKGANNSNTTNPPPAPSKSPEEMRKLFIQRAKKIDKISRIGFPMAFLIFNMFYWIIYKIVRREDVHNQ
modifications: synthetic sequence of chimeric LGIC
YFP fluorescence quenching using CNL001 (percent quench) [1]: 32.42%
YFP fluorescence quenching using CNL001 (percent quench) [2]: 54.768%
YFP fluorescence quenching using TC-5619/Bradanicline (percent quench) [3]: 74.7%
YFP fluorescence quenching using CNL001 (percent quench) [4]: 75.149%
YFP fluorescence quenching using CNL001 (percent quench) [5]: 75.339%
YFP fluorescence quenching using TC-5619/Bradanicline (percent quench) [6]: 76.78%
YFP fluorescence quenching using CNL001 (percent quench) [7]: 75.881%
YFP fluorescence quenching using CNL001 (percent quench) [8]: 77.844%
YFP fluorescence quenching using ABT-126 (percent quench) (50 nM abt (ABT-126)): −14.97%
YFP fluorescence quenching using CNL001 (percent quench) [9]: 78%
YFP fluorescence quenching using CNL001 (percent quench) [10]: 78.575%
YFP fluorescence quenching (percent quench) (100 nM CNL002): 2.95%
YFP fluorescence quenching using ABT-126 (percent quench) (100 nM abt (ABT-126)): −14.66%
YFP fluorescence quenching using AZD-0328 (percent quench) (100 nM azd0328): 22.94%
YFP fluorescence quenching using ABT-126 (percent quench) (300 nM abt (ABT-126)): −16.35%
YFP fluorescence quenching using AZD-0328 (percent quench) (300 nM azd0328): 75.38%
YFP fluorescence quenching using TC-5619/Bradanicline (percent quench) [11]: 77.01%
YFP fluorescence quenching using CNL001 (percent quench) [12]: 81.126%
YFP fluorescence quenching using CNL001 (percent quench) [13]: 79.482%
YFP fluorescence quenching (percent quench) (1 uM CNL002): 67.93%
YFP fluorescence quenching using ABT-126 (percent quench) (1 uM abt (ABT-126)): 50.02%
YFP fluorescence quenching (percent quench) (10 uM ach (acetylcholine)): −16.58%
YFP fluorescence quenching (percent quench) (30 uM CNL002): 73.02%
YFP fluorescence quenching using AZD-0328 (percent quench) (30 uM azd0328): 81.8%
YFP fluorescence quenching (percent quench) (100 uM ach (acetylcholine)): 75.18%
YFP fluorescence quenching (percent quench) (1 mM ach (acetylcholine)): 78.99%
YFP fluorescence quenching (percent quench) (3 mM ach (acetylcholine)): 75.74%
YFP fluorescence quenching using Facinicline, 30 nM fac: −19.61
YFP fluorescence quenching using Facinicline, 300 nM fac: 76.54
YFP fluorescence quenching using Facinicline, 30 uM fac: 87.94
YFP fluorescence quenching using TC-6987, 1 uM tc6987: 72.47
YFP fluorescence quenching using TC-6987, 10 uM tc6987: 72.04
YFP fluorescence quenching using TC-6987, 500 uM tc6987: 76.56
YFP fluorescence quenching using Varenicline, 3 nM var (first column): 17.896
YFP fluorescence quenching using Varenicline, 3 nM var (second column): 12.564
YFP fluorescence quenching using Varenicline, 30 nM var (first column): 16.263
YFP fluorescence quenching using Varenicline, 30 nM var (second column): 22.117
YFP fluorescence quenching using Varenicline, 300 nM var (first column): 77.492
YFP fluorescence quenching using Varenicline, 300 nM var (second column): 79.056
YFP fluorescence quenching using Varenicline, 500 nM var (first column): 80.186
YFP fluorescence quenching using Varenicline, 500 nM var (second column): 80.065
YFP fluorescence quenching using Varenicline, 1 uM var (first column): 81.263
YFP fluorescence quenching using Varenicline, 1 uM var (second column): 80.702

B2: CODA282: engineered receptor: Y115D in SEQ ID NO: 33 (protein)
chain: B1 chain with W101R, Y115D
modifications: synthetic sequence of chimeric LGIC
YFP fluorescence quenching using CNL001 (percent quench) [1]: −15.837%
YFP fluorescence quenching using CNL001 (percent quench) [2]: −6.519%
YFP fluorescence quenching using TC-5619/Bradanicline (percent quench) (1 nM brd (TC-5619/Bradanicline)): −0.54%
YFP fluorescence quenching using TC-5619/Bradanicline (percent quench) [3]: −7.22%
YFP fluorescence quenching using CNL001 (percent quench) [4]: −4.862%
YFP fluorescence quenching using CNL001 (percent quench) [5]: −8.244%
YFP fluorescence quenching using TC-5619/Bradanicline (percent quench) (10 nM brd (TC-5619/Bradanicline)): −2.82%
YFP fluorescence quenching using TC-6683 (percent quench) (30 nM TC-6683): 0.365%
YFP fluorescence quenching using TC-5619/Bradanicline (percent quench) [6]: −16.67%
YFP fluorescence quenching using CNL001 (percent quench) [7]: −3.807%
YFP fluorescence quenching using CNL001 (percent quench) [8]: −2.871%
YFP fluorescence quenching using ABT-126 (percent quench) (50 nM abt (ABT-126)): −21.22%
YFP fluorescence quenching using CNL001 (percent quench) [9]: −7.924%
YFP fluorescence quenching using CNL001 (percent quench) [10]: 2.11%
YFP fluorescence quenching (percent quench) (100 nM CNL002): −9.7%
YFP fluorescence quenching using ABT-126 (percent quench) (100 nM abt (ABT-126)): −19.7%
YFP fluorescence quenching using AZD-0328 (percent quench) (100 nM azd0328): 3.19%
YFP fluorescence quenching using TC-5619/Bradanicline (percent quench) (100 nM brd (TC-5619/Bradanicline)): −0.02%
YFP fluorescence quenching using TC-6683 (percent quench) (300 nM TC-6683): −6.865%
YFP fluorescence quenching using ABT-126 (percent quench) (300 nM abt (ABT-126)): −15.55%
YFP fluorescence quenching using AZD-0328 (percent quench) (300 nM azd0328): 4.79%
YFP fluorescence quenching using TC-5619/Bradanicline (percent quench) [11]: −12.37%
YFP fluorescence quenching using CNL001 (percent quench) [12]: 11.047%
YFP fluorescence quenching using CNL001 (percent quench) [13]: 8.04%
YFP fluorescence quenching (percent quench) (1 uM CNL002): −8.37%
YFP fluorescence quenching using ABT-126 (percent quench) (1 uM abt (ABT-126)): −14.31%
YFP fluorescence quenching using TC-5619/Bradanicline (percent quench) (1 uM brd (TC-5619/Bradanicline)): 31.23%
YFP fluorescence quenching using TC-6683 (percent quench) (3 uM TC-6683): −4.927%
YFP fluorescence quenching (percent quench) (10 uM ach (acetylcholine)): 6.81%
YFP fluorescence quenching (percent quench) (30 uM CNL002): 3.4%
YFP fluorescence quenching using TC-6683 (percent quench) (30 uM TC-6683): −11.259%
YFP fluorescence quenching using AZD-0328 (percent quench) (30 uM azd0328): 76.78%
YFP fluorescence quenching using TC-6683 (percent quench) (100 uM TC-6683): −11.894%
YFP fluorescence quenching (percent quench) (100 uM ach (acetylcholine)): 1.19%
YFP fluorescence quenching (percent quench) (1 mM ach (acetylcholine)): −14.05%
YFP fluorescence quenching (percent quench) (3 mM ach (acetylcholine)): 2.37%
YFP fluorescence quenching using Facinicline, 30 nM fac: 10.17
YFP fluorescence quenching using Facinicline, 100 nM fac (ligand Facinicline 100 nM): 24.77
YFP fluorescence quenching using Facinicline, 300 nM fac: 51.04
YFP fluorescence quenching using Facinicline, 10 uM fac (ligand Facinicline 10 uM): 79.76
YFP fluorescence quenching using Facinicline, 30 uM fac: 81.7
YFP fluorescence quenching using TC-6987, 1 uM tc6987: 13.01
YFP fluorescence quenching using TC-6987, 10 uM tc6987: 14.73
YFP fluorescence quenching using TC-6987, 500 uM tc6987: 14.29
YFP fluorescence quenching using Varenicline, 3 nM var (first column): 2.111
YFP fluorescence quenching using Varenicline, 3 nM var (second column): −12.265
YFP fluorescence quenching using Varenicline, 30 nM var (first column): −4.433
YFP fluorescence quenching using Varenicline, 30 nM var (second column): −6.153
YFP fluorescence quenching using Varenicline, 300 nM var (first column): −0.861
YFP fluorescence quenching using Varenicline, 300 nM var (second column): −1.308
YFP fluorescence quenching using Varenicline, 500 nM var (first column): 0.733
YFP fluorescence quenching using Varenicline, 500 nM var (second column): −4.633
YFP fluorescence quenching using Varenicline, 1 uM var (first column): −4.512
YFP fluorescence quenching using Varenicline, 1 uM var (second column): 0.02
